Molecular target: Chicken gizzard actin (chicken) (UniProt P63270)
Assay: nanopore sensing

- filamentous fraction, initial: 17%
- filamentous fraction, maximum: 75%
Substance: Chicken gizzard actin (from UniProt P63270 1-376) (natural protein)
